Measured values from US20210238283A1 (Y BIOLOGICS, published 2021).
Several values for one entry are separate records, joined by “and”; a condition that tells them apart may be missing. Equal values may be shown once.

Columns and labels:
[1] = target: T1, human LAG-3 overexpressed on cells (human, UniProt P18627 23-525); test: cell-based or functional assay
T1 sequence (looked up): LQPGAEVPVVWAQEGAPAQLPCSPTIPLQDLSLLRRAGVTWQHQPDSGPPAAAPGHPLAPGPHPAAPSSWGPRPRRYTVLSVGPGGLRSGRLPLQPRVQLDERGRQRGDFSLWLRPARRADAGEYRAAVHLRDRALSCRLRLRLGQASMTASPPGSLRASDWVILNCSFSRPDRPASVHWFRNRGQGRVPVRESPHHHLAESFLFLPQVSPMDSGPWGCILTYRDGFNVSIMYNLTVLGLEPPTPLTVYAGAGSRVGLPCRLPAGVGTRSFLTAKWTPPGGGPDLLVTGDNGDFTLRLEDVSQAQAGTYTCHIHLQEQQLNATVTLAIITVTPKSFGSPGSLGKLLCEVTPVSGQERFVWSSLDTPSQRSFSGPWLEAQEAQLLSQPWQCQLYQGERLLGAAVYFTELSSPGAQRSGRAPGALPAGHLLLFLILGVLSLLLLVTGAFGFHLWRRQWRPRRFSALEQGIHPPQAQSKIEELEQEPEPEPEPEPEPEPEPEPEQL

[2] = target: T1, human LAG-3 overexpressed on cells; test: cell-based or functional assay; remark: listed apart in the source
[3] = target: T1, human LAG-3 overexpressed on cells; test: flow cytometry, HEK293E cells overexpressing human LAG-3
Experimental: After that, the cells were washed three times with PBS containing 2% FBS and then subjected to the reaction for 30 minutes at 4° C. with anti-human IgG antibody (#FI-3000, Vectorlabs) linked with FITC fluorescent. The cells were washed by the same washing process as above followed by suspension in 0.2 ml PBS containing 2% FBS. The cells were then analyzed by FACSCanto II flow cytometer.

[4] = target: T2, recombinant human LAG-3 extracellular domain fused with mouse Fc (hLAG-3-mFc) (human, UniProt P18627 29-450); test: flow cytometry, inhibition of LAG-3-mFc binding to Raji cells (MHC class II)
T2 construct: range 29-450; Made in HEK293F cells; also called human LAG-3 antigen; wild-type (WT) LAG-3; not shown: mouse Fc (mFc) at the carboxy terminal
T2 sequence (looked up): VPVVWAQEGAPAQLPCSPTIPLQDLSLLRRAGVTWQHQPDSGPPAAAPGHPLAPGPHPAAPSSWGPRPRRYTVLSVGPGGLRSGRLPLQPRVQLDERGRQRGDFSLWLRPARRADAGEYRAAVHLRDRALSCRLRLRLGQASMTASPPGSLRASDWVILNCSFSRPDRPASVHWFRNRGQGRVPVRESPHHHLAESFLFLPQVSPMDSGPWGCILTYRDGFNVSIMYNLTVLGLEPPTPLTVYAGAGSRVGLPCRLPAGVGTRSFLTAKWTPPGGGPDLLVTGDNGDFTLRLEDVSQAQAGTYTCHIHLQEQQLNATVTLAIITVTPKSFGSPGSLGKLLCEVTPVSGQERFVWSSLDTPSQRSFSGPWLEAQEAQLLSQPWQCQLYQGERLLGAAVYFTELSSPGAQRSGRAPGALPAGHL
Experimental: After that, the antigen-antibody mixture was reacted with the prepared cells for 30 minutes at 4° C. […] After washing them in the same manner as above and suspending them in 0.2 ml PBS containing 2% FBS, analysis was made using CytoFLEX flow cytometer (Beckman coulter, USA)

EC50 value representing the capacity of recovering the inhibition [1]: 0.0578 µg/mL | activity against the control antibody (fold) [1]: ~2.9 times | EC50 (µg/ml), LAG3/MHC class II Blockade bioassay [2]: 0.0688 µg/mL and 0.186 µg/mL | EC50 [3]: 0.0757 µg/mL | IC50 [4]: 25.1 nM
B1: human anti-LAG-3 monoclonal antibody 1E09 (antibody, V domains shown)
VH: QVQLVQSGGDLVKPGGSLRLSCAASGFSFSDHYMNWIRQAPGKGLEWVAYIDTSATYIYYADSVKGRFTISRDNAKNSLYLQMNSLRAEDTAVYYCARDNWGSLDYWGQGALVTVSS
VL: DIQMTQSPSSLSPSVGDRVTITCQASQEISIYLNWYQQKPGKAPKLLIYDASNLETGVPSRFSGSGSGTDFTLTISSLQPEDFATYYCQQTYITPYTFGQGTKLDIK
notes: Tested as full IgG converted from scFv; also called LAG-3-1E09; Parent (1E09)
